# From patent publication US20220177587A1, “METHODS AND USES OF VARIANT CD80 FUSION PROTEINS AND RELATED CONSTRUCTS” (Alpine Immune Sciences, Inc., priority 2018, published 2022)
# Values joined by “and” are separate entries in the source; they are usually repeats but may differ in a detail not shown here. Identical values can stand only once.
# B1: H18L, R29D, Y31L, Q33H, K36G, M38I, T41A, M43R, M47T, E81V, L85R, K89N, A91T, F92P, K93V, R94L, E99D, T130A (protein)
# chain: VIHVTKEVKEVATLSCGLNVSVEELAQTDILWHKEGKIVLAMRSGDTNIWPEYKNRTIFDITNNLSIVILALRPSDEGTYVCVVRKYENDTPVLEHLADVTLSVKADFPTPSISDFEIPTSNIRRIICSASGGFPEPHLSWLENGEELNAINTTVSQDPETELYAVSSKLDFNMTTNHSFMCLIKYGHLRVNQTFNWNTTKQEHFPDN
# B2: R29D, Y31L, Q33H, K36G, M38I, T41A, M43R, M47T, T62S, E81V, L85R, K89N, A91T, F92P, K93V, R94L, I118V, T120S, T130A, K169E, T175A (protein)
# chain: VIHVTKEVKEVATLSCGHNVSVEELAQTDILWHKEGKIVLAMRSGDTNIWPEYKNRTIFDISNNLSIVILALRPSDEGTYVCVVRKYENDTPVLEHLAEVTLSVKADFPTPSISDFEVPSSNIRRIICSASGGFPEPHLSWLENGEELNAINTTVSQDPETELYAVSSELDFNMATNHSFMCLIKYGHLRVNQTFNWNTTKQEHFPDN
# B3: H18L, R29D, Y31L, Q33H, K36G, M38I, T41A, M43R, M47T, E81V, L85R, K89N, A91T, F92P, K93V, R94L, I118V, T120S, I127T, T130A, L142S, H188D (protein)
# chain: VIHVTKEVKEVATLSCGLNVSVEELAQTDILWHKEGKIVLAMRSGDTNIWPEYKNRTIFDITNNLSIVILALRPSDEGTYVCVVRKYENDTPVLEHLAEVTLSVKADFPTPSISDFEVPSSNIRRITCSASGGFPEPHLSWSENGEELNAINTTVSQDPETELYAVSSKLDFNMTTNHSFMCLIKYGDLRVNQTFNWNTTKQEHFPDN
# B4: H18L, R29D, Y31L, Q33H, K36G, M38I, T41A, M43R, M47T, L70Q, E81V, L85R, K89N, A91T, F92P, K93V, R94L, I118V, T120S, T130A, K169E (protein)
# chain: VIHVTKEVKEVATLSCGLNVSVEELAQTDILWHKEGKIVLAMRSGDTNIWPEYKNRTIFDITNNLSIVIQALRPSDEGTYVCVVRKYENDTPVLEHLAEVTLSVKADFPTPSISDFEVPSSNIRRIICSASGGFPEPHLSWLENGEELNAINTTVSQDPETELYAVSSELDFNMTTNHSFMCLIKYGHLRVNQTFNWNTTKQEHFPDN
# B5: R29D, Y31L, Q33H, K36G, M38I, T41A, M43R, M47T, I61N, E81V, L85R, K89N, A91T, F92P, K93V, R94F, V104A, I118V, T120S, I126V, T130A (protein)
# chain: VIHVTKEVKEVATLSCGHNVSVEELAQTDILWHKEGKIVLAMRSGDTNIWPEYKNRTIFDNTNNLSIVILALRPSDEGTYVCVVRKYENDTPVFEHLAEVTLSAKADFPTPSISDFEVPSSNIRRVICSASGGFPEPHLSWLENGEELNAINTTVSQDPETELYAVSSKLDFNMTTNHSFMCLIKYGHLRVNQTFNWNTTKQEHFPDN
# B6: R29D, Y31L, Q33H, K36G, M38I, T41A, M43R, M47T, L70Q, E81V, L85R, K89N, A91T, F92P, K93V, R94L, I118V, T120S, I127T, T130A (protein)
# chain: VIHVTKEVKEVATLSCGHNVSVEELAQTDILWHKEGKIVLAMRSGDTNIWPEYKNRTIFDITNNLSIVIQALRPSDEGTYVCVVRKYENDTPVLEHLAEVTLSVKADFPTPSISDFEVPSSNIRRITCSASGGFPEPHLSWLENGEELNAINTTVSQDPETELYAVSSKLDFNMTTNHSFMCLIKYGHLRVNQTFNWNTTKQEHFPDN
# B7: R29D, Y31L, Q33H, K36G, M38I, T41A, M43R, M47T, L70Q, E81V, L85R, K89N, A91T, F92P, K93I, R94L, L97R, T130A, L148S (protein)
# chain: VIHVTKEVKEVATLSCGHNVSVEELAQTDILWHKEGKIVLAMRSGDTNIWPEYKNRTIFDITNNLSIVIQALRPSDEGTYVCVVRKYENDTPILEHRAEVTLSVKADFPTPSISDFEIPTSNIRRIICSASGGFPEPHLSWLENGEESNAINTTVSQDPETELYAVSSKLDFNMTTNHSFMCLIKYGHLRVNQTFNWNTTKQEHFPDN
# B8: H18L, R29D, Y31L, Q33H, K36G, M38I, T41A, M43R, M47T, E81V, L85R, K89N, A91T, F92P, K93V, R94L, F116S, T130A, H188D (protein)
# chain: VIHVTKEVKEVATLSCGLNVSVEELAQTDILWHKEGKIVLAMRSGDTNIWPEYKNRTIFDITNNLSIVILALRPSDEGTYVCVVRKYENDTPVLEHLAEVTLSVKADFPTPSISDSEIPTSNIRRIICSASGGFPEPHLSWLENGEELNAINTTVSQDPETELYAVSSKLDFNMTTNHSFMCLIKYGDLRVNQTFNWNTTKQEHFPDN
# B9: C16S, H18L, R29D, Y31L, Q33H, K36G, M38I, T41A, M43R, M47T, E81V, L85R, K89N, A91T, F92P, K93V, R94L, T110A, I118V, H188D (protein)
# chain: VIHVTKEVKEVATLSSGLNVSVEELAQTDILWHKEGKIVLAMRSGDTNIWPEYKNRTIFDITNNLSIVILALRPSDEGTYVCVVRKYENDTPVLEHLAEVTLSVKADFPAPSISDFEVPTSNIRRIICSTSGGFPEPHLSWLENGEELNAINTTVSQDPETELYAVSSKLDFNMTTNHSFMCLIKYGDLRVNQTFNWNTTKQEHFPDN
# B10: R29D, Y31L, Q33H, K36G, M38I, T41A, M43R, M47T, L70Q, E81V, L85R, K89N, A91T, F92P, K93I, R94L, L97R, T130A (protein)
# chain: VIHVTKEVKEVATLSCGHNVSVEELAQTDILWHKEGKIVLAMRSGDTNIWPEYKNRTIFDITNNLSIVIQALRPSDEGTYVCVVRKYENDTPILEHRAEVTLSVKADFPTPSISDFEIPTSNIRRIICSASGGFPEPHLSWLENGEELNAINTTVSQDPETELYAVSSKLDFNMTTNHSFMCLIKYGHLRVNQTFNWNTTKQEHFPDN
# B11: R29D, Y31L, Q33H, K36G, M38I, T41A, M43R, M47T, E81V, L85R, K89N, A91T, F92P, K93V, R94F, I118V, T120S, T130A (protein)
# chain: VIHVTKEVKEVATLSCGHNVSVEELAQTDILWHKEGKIVLAMRSGDTNIWPEYKNRTIFDITNNLSIVILALRPSDEGTYVCVVRKYENDTPVFEHLAEVTLSVKADFPTPSISDFEVPSSNIRRIICSASGGFPEPHLSWLENGEELNAINTTVSQDPETELYAVSSKLDFNMTTNHSFMCLIKYGHLRVNQTFNWNTTKQEHFPDN
# B12: R29D, Y31L, Q33H, K36G, M38I, T41A, M43R, M47T, A91G, I118V, T120S, I127T, T130A, H188D (protein)
# chain: VIHVTKEVKEVATLSCGHNVSVEELAQTDILWHKEGKIVLAMRSGDTNIWPEYKNRTIFDITNNLSIVILALRPSDEGTYECVVLKYEKDGFKREHLAEVTLSVKADFPTPSISDFEVPSSNIRRITCSASGGFPEPHLSWLENGEELNAINTTVSQDPETELYAVSSKLDFNMTTNHSFMCLIKYGDLRVNQTFNWNTTKQEHFPDN
# B13: R29D, Y31L, Q33H, K36G, M38I, T41A, M43R, M47T, L70Q, D76G, A91G, S103L, I118V, T120S, I127T, T130A (protein)
# chain: VIHVTKEVKEVATLSCGHNVSVEELAQTDILWHKEGKIVLAMRSGDTNIWPEYKNRTIFDITNNLSIVIQALRPSGEGTYECVVLKYEKDGFKREHLAEVTLLVKADFPTPSISDFEVPSSNIRRITCSASGGFPEPHLSWLENGEELNAINTTVSQDPETELYAVSSKLDFNMTTNHSFMCLIKYGHLRVNQTFNWNTTKQEHFPDN
# B14: Y53C, L85R, K89N, A91T, F92P, K93V, R94L, I118V, T120S, I127T, T130A, K169E (protein)
# chain: VIHVTKEVKEVATLSCGHNVSVEELAQTRIYWQKEKKMVLTMMSGDMNIWPECKNRTIFDITNNLSIVILALRPSDEGTYECVVRKYENDTPVLEHLAEVTLSVKADFPTPSISDFEVPSSNIRRITCSASGGFPEPHLSWLENGEELNAINTTVSQDPETELYAVSSELDFNMTTNHSFMCLIKYGHLRVNQTFNWNTTKQEHFPDN
# B15: T62S, E81V, L85R, K89N, A91T, F92P, K93V, R94L, I118V, T120S, T130A, K169E (protein)
# chain: VIHVTKEVKEVATLSCGHNVSVEELAQTRIYWQKEKKMVLTMMSGDMNIWPEYKNRTIFDISNNLSIVILALRPSDEGTYVCVVRKYENDTPVLEHLAEVTLSVKADFPTPSISDFEVPSSNIRRIICSASGGFPEPHLSWLENGEELNAINTTVSQDPETELYAVSSELDFNMTTNHSFMCLIKYGHLRVNQTFNWNTTKQEHFPDN
# System: human pan T cells
# Assay: Anti-CD3 coimmobilization assay, IFN-gamma
# Type: cell-based
# Details: Table E34; culture supernatant, 3 days
# Protocol: Costimulatory bioactivity of CD80 fusion variants was determined in anti-CD3 coimmobilization assays. 1 nM or 4 nM mouse anti-human CD3 (OKT3, Biolegends, USA) was diluted in PBS with 1 nM to 80 nM rCD80.Fc variant proteins. This mixture was added to tissue culture treated flat bottom 96-well plates (Corning, USA) overnight to facilitate adherence of the stimulatory proteins to the wells of the plate. The next day, unbound protein was washed off the plates and 100,000 purified human pan T cells (BenTech Bio, US) or human T cell clone BC3 (Astarte Biologics, USA) were added to each well in a final volume of 200 μl of Ex-Vivo 15 media (Lonza, Switzerland). Cells were cultured 3 days before harvesting culture supernatants and measuring human IFN-gamma levels with Duoset ELISA kit (R&D Systems, USA) as described above.
row,Molecule,Anti-CD3 IFN-gamma Coimmobilization Assay
1,B1,174 pg/mL
2,B2,114 pg/mL
3,B3,143 pg/mL
4,B4,232 pg/mL
5,B5,288 pg/mL
6,B6,162 pg/mL and 135 pg/mL
7,B7,101 pg/mL
8,B8,114 pg/mL
9,B9,247 pg/mL
10,B10,202 pg/mL
11,B11,111 pg/mL
12,B12,125 pg/mL
13,B13,224 pg/mL
14,B14,75 pg/mL
15,B15,107 pg/mL
